# IntAct's records for PubMed 29789297
# B1: Casein kinase I isoform alpha (Homo sapiens), P48729 (parent)
# chain: MASSSGSKAEFIVGGKYKLVRKIGSGSFGDIYLAINITNGEEVAVKLESQKARHPQLLYESKLYKILQGGVGIPHIRWYGQEKDYNVLVMDLLGPSLEDLFNFCSRRFTMKTVLMLADQMISRIEYVHTKNFIHRDIKPDNFLMGIGRHCNKLFLIDFGLAKKYRDNRTRQHIPYREDKNLTGTARYASINAHLGIEQSRRDDMESLGYVLMYFNRTSLPWQGLKAATKKQKYEKISEKKMSTPVEVLCKGFPAEFAMYLNYCRGLRFEEAPDYMYLRQLFRILFRTLNHQYDYTFDWTMLKQKAAQQAASSSGQGQQAQTPTGKQTDKTKSNMKGF
# partner: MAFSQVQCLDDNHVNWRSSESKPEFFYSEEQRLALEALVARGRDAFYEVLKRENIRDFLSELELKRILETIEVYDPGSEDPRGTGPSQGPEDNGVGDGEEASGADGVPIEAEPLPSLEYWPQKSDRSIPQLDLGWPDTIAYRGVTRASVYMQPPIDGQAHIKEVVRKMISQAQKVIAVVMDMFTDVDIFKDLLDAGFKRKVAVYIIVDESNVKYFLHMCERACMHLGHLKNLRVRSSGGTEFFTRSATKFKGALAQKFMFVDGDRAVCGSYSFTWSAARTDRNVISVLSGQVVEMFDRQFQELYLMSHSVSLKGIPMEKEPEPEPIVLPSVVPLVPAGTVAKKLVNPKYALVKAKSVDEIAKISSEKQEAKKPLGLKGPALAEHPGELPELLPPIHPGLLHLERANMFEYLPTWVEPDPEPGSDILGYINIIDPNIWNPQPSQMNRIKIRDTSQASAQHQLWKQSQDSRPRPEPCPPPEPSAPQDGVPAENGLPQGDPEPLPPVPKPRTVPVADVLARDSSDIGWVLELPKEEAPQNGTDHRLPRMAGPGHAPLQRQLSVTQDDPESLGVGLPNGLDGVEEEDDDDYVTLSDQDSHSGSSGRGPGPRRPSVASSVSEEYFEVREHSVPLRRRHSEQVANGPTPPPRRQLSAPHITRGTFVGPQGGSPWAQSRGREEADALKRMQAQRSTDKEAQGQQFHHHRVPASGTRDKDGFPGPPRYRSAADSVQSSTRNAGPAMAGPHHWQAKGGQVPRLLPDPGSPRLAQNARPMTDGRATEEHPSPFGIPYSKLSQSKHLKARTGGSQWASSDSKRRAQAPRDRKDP
# B2: Casein kinase I isoform alpha (Homo sapiens), P48729 (parent)
# chain: B1 chain
# B3: Protein FAM83G (Homo sapiens), A6ND36 (parent)
# chain: B1 partner
# B4: Protein FAM83H (Homo sapiens), Q6ZRV2 (parent)
# chain: MARRSQSSSQGDNPLAPGYLPPHYKEYYRLAVDALAEGGSEAYSRFLATEGAPDFLCPEELEHVSRHLRPPQYVTREPPEGSLLDVDMDGSSGTYWPVNSDQAVPELDLGWPLTFGFQGTEVTTLVQPPPPDSPSIKDEARRMIRSAQQVVAVVMDMFTDVDLLSEVLEAAARRVPVYILLDEMNAQHFLDMADKCRVNLQHVDFLRVRTVAGPTYYCRTGKSFKGHVKEKFLLVDCAVVMSGSYSFMWSFEKIHRSLAHVFQGELVSSFDEEFRILFAQSEPLVPSAAALARMDAYALAPYAGAGPLVGVPGVGAPTPFSFPKRAHLLFPPPREEGLGFPSFLDPDRHFLSAFRREEPPRMPGGALEPHAGLRPLSRRLEAEAGPAGELAGARGFFQARHLEMDAFKRHSFATEGAGAVENFAAARQVSRQTFLSHGDDFRFQTSHFHRDQLYQQQYQWDPQLTPARPQGLFEKLRGGRAGFADPDDFTLGAGPRFPELGPDGHQRLDYVPSSASREVRHGSDPAFAPGPRGLEPSGAPRPNLTQRFPCQAAARPGPDPAPEAEPERRGGPEGRAGLRRWRLASYLSGCHGEDGGDDGLPAPMEAEAYEDDVLAPGGRAPAGDLLPSAFRVPAAFPTKVPVPGPGSGGNGPEREGPEEPGLAKQDSFRSRLNPLVQRSSRLRSSLIFSTSQAEGAAGAAAATEKVQLLHKEQTVSETLGPGGEAVRSAASTKVAELLEKYKGPARDPGGGAGAITVASHSKAVVSQAWREEVAAPGAVGGERRSLESCLLDLRDSFAQQLHQEAERQPGAASLTAAQLLDTLGRSGSDRLPSRFLSAQSHSTSPQGLDSPLPLEGSGAHQVLHNESKGSPTSAYPERKGSPTPGFSTRRGSPTTGFIEQKGSPTSAYPERRGSPVPPVPERRSSPVPPVPERRGSLTLTISGESPKAGPAEEGPSGPMEVLRKGSLRLRQLLSPKGERRMEDEGGFPVPQENGQPESPRRLSLGQGDSTEAATEERGPRARLSSATANALYSSNLRDDTKAILEQISAHGQKHRAVPAPSPGPTHNSPELGRPPAAGVLAPDMSDKDKCSAIFRSDSLGTQGRLSRTLPASAEERDRLLRRMESMRKEKRVYSRFEVFCKKEEASSPGAGEGPAEEGTRDSKVGKFVPKILGTFKSKK
# B5: Protein FAM83F (Homo sapiens), Q8NEG4 (parent)
# chain: MAESQLNCLDEAHVNEKVTEAQAAFYYCERRRAALEALLGGGEQAYRERLKEEQLRDFLSSPERQALRAAWSPYEDAVPAANARGKSKAKAKAPAPAPAESGESLAYWPDRSDTEVPPLDLGWTDTGFYRGVSRVTLFTHPPKDEKAPHLKQVVRQMIQQAQKVIAVVMDLFTDGDIFQDIVDAACKRRVPVYIILDEAGVKYFLEMCQDLQLTDFRIRNIRVRSVTGVGFYMPMGRIKGTLSSRFLMVDGDKVATGSYRFTWSSSHVDRNLLLLLTGQNVEPFDTEFRELYAISEEVDLYRQLSLAGRVGLHYSSTVARKLINPKYALVSGCRHPPGEMMRWAARQQREAGGNPEGQEEGASGGESAWRLESFLKDLVTVEQVLPPVEPIPLGELSQKDGRMVSHMHRDLKPKSREAPSRNGMGEAARGEAAPARRFSSRLFSRRAKRPAAPNGMASSVSTETSEVEFLTGKRPNENSSADISGKTSPSSAKPSNCVIS
# B6: Protein FAM83C (Homo sapiens), Q9BQN1 (parent)
# chain: MFGGPGPGVLGAQGMAGPLRGRVEELKLPWWRESSPLVLRHSEAARLAADALLERGEAAYLRVISEERELPFLSALDVDYMTSHVRGGPELSEAQGQEASGPDRLSLLSEVTSGTYFPMASDIDPPDLDLGWPEVPQATGFSPTQAVVHFQRDKAKNIKDLLRFLFSQAHTVVAVVMDIFTDMELLCDLMEASSRRGVPVYLLLAQEHLRHFLEMCYKMDLNGEHLPNMRVRSTCGDTYCSKAGRRFTGQALEKFVLIDCEQVVAGSYSFTWLCSQAHTSMVLQLRGRIVEDFDREFRCLYAESQPVEGFCGGEDPLSPRALRPPPVALAFRPDVPSPTSSLPSSTSLSSIKQSPLMGRSSYLALPGGGDCSDTGVVSSSLGPARREASGQPSLHRQLSDPNHGSPPGLYRANLGKLGAYPWSQSSPALNHNSTSPLTLAVGSPLLPRSRPLLQFHRGAPALSRFPENGLPGSQEPSPLRGRWVPGTTLETVEEKEKKASPSQSRGQLDLLVPFPRAREVGDPDSGVTPNSGPLRPGEQAPEDRRLSPSQADSQLDLLSRALGTGGAPELGSLRPGDRALEDRRLSLNQSRGQSDLLMQYPKAQGSRVPLETNSSARPARRAPDERRQTLGHSQLDLITKFGPFRGEGPGPNGLPISSPARTAGAGSGDEKRLTLGHSKLDLITKYHQLHGARQGTEPGGPKGGHLNGGNSDLVRDEKRLTLGHSKLDLITKYNKSKFKQLRSRFES
# B7: Casein kinase I isoform alpha (Homo sapiens), P48729 (parent)
# chain: B1 chain
# partner: B4 chain
# Variants of: B1
# Conditions: with fa83g_human FAM83G
row,Variant,effect of a mutation on the interaction
1,N141A,with no effect

# Variants of: B2
# Conditions: with fa83e_human FAM83E
row,Variant,effect of a mutation on the interaction
1,N141A,with no effect

# Variants of: B2
# Conditions: with fa83f_human FAM83F
row,Variant,effect of a mutation on the interaction
1,N141A,with no effect

# Variants of: B3
# Conditions: with kc1a_human CSNK1A1, P48729
row,Variant,effect of a mutation on the interaction
1,F296A,disrupting interaction strength
2,F296A;F300A,disrupting interaction strength
3,F300A,with no effect

# Variants of: B3
# Conditions: with kc1a_human CSNK1A1, P48729
# Remark: another data set of the same source
row,Variant,effect of a mutation on the interaction
1,F300A,disrupting interaction strength
2,D262A,disrupting interaction strength

# Variants of: B4
# Conditions: with kc1a_human CSNK1A1, P48729
row,Variant,effect of a mutation on the interaction
1,D236A,disrupting interaction strength
2,F270A,disrupting interaction strength

# Variants of: B4
# Conditions: with kc1e_human CSNK1E
row,Variant,effect of a mutation on the interaction
1,D236A,disrupting interaction strength
2,F270A,disrupting interaction strength

# Variants of: B5
# Conditions: with kc1a_human CSNK1A1, P48729
row,Variant,effect of a mutation on the interaction
1,D250A,disrupting interaction strength
2,F284A,disrupting interaction strength

# Variants of: B6
# Conditions: with kc1a_human CSNK1A1, P48729
row,Variant,effect of a mutation on the interaction
1,D259A,disrupting interaction strength
2,F293A,disrupting interaction strength

# Variants of: B7
# Conditions: with fa83h_human FAM83H
row,Variant,effect of a mutation on the interaction
1,N141A,with no effect
